From US20190322729A1

What was measured:
[1] = tested on: T1, H1.0K180me2 peptide AKPVKASKPKKAKPVK(me2)PK
T1 sequence: AKPVKASKPKKAKPVKPK

[2] = tested on: T2, unmodified H1.0 peptide AKPVKASKPKKAKPVKPK
T2 sequence: AKPVKASKPKKAKPVKPK

Substance	in vitro methylation, LC-MS: further methylated product H1.0K166me1K180me2 [1]	in vitro methylation, LC-MS: further methylated product H1.0K174me1K180me3 [1]	in vitro methylation, LC-MS: further methylated product H1.0K174me3K175me3K177me1K180me2 [1]	in vitro methylation, LC-MS: share of peptides further methylated [1]	in vitro methylation with tritium-labeled methyl donor, autoradiography [2]	in vitro methylation, LC-MS spectral counts: share of peptides dimethylated at K180 [2]
G9A methyltransferase (recombinant, NEB M0235S)	1.27% of the total peptide in the reaction	1.06% of the total peptide in the reaction	0.35% of the total peptide in the reaction	only 2.64% of peptides are further methylated	The appearance of a band at 4 kDa shows that The G9A methyltransferase capable of methylating H1.0 peptide	99.9% of all peptides
GLP methyltransferase (recombinant, Cayman Chemical 10755)	–	–	–	1.02% of peptides are further methylated	–	96.6% of all peptides
